Here are results for one molecule from patent US20240226314A1 (Sanofi, published 2024).

In assay [1] the target is T1, His-tagged human TfR ectodomain (hTFRC_89-760_G142S; mature protein) (human, UniProt P02786 89-760).
T1 construct: It carries the G142S haplotype; also called hTfR ectodomain
Briefly: SPR, His-tagged TfR ectodomain captured on anti-His, 1:1 fit. The method, then: (§1) Experiments were run on Bruker MASS-2 instrument with HBS-EP+ as running buffer and sample diluent (Cytiva Life Sciences, #BR100826). HCA sensorchips (Bruker, #1862614) were immobilized with anti his antibody (His capture kit, Cytiva Life Sciences, #28995056) following provider's instructions. About 10 000 RU of anti his was obtained. […] Surface was regenerated with one 1 min pulse of 10 mM Glycine-HCl pH1.5.
In general terms: Surface plasmon resonance follows binding to a sensor surface in real time, without labels.

Assay [2] has as its target T2, His-tagged cynomolgus monkey TfR ectodomain (cyTFRC_89_760; mature protein) (cynomolgus monkey (Macaca fascicularis), UniProt Q5RDH6 89-760 (Pongo abelii entry)).
T2 construct: also called cTfR; cTfR ectodomain
T2 chain: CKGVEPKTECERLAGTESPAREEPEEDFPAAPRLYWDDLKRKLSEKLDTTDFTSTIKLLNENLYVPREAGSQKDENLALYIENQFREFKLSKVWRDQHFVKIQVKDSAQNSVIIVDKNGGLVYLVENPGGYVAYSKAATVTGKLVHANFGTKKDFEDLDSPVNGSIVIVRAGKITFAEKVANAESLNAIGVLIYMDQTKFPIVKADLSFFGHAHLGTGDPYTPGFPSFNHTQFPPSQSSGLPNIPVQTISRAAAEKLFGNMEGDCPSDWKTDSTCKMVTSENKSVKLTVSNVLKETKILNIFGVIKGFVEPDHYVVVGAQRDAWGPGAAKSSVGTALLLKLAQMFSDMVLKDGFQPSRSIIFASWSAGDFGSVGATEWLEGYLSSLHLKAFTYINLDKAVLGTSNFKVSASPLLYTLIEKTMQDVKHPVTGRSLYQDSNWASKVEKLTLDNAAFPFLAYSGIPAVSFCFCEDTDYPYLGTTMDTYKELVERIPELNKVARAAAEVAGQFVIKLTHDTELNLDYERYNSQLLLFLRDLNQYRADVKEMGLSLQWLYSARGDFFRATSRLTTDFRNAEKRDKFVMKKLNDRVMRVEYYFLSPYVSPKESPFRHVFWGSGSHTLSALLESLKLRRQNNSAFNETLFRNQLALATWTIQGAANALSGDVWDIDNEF
The description is as above. The protocol:
as §1

For assay [3], the target named is T2, His-tagged cynomolgus monkey TfR …. Briefly: SPR; KD on cTfR against KD on hTfR. The protocol: as §1
Assay [4] deals with His-tagged mouse TfR ectodomain (mTFRC_89_764; mature protein) (mouse, UniProt Q62351 89-763). Description: SPR, His-tagged mTfR ectodomain captured on anti-His. The method, then:
as §1

The target of assay [5] is T2, His-tagged cynomolgus monkey TfR …. Briefly: SPR; KD on cTfR against KD on hTfR. The protocol:
(§2) Binding of the humanized Fab variants to human, cynomolgus and mouse TfR was assessed using SPR at pH 7.4. Experiments were run on a Bruker MASS-2 instrument with HBS-EP+ as running buffer and sample diluent (Cytiva Life Sciences, #BR100826). HCA sensor chips (Bruker, #1862614) were immobilized with anti-His antibody (His capture kit, Cytiva Life Sciences, #28995056) following manufacturer's instructions. About 10,000 RU of anti-His was obtained. His-tagged hTfR ectodomain (SEQ ID NO: 39), cTfR ectodomain (SEQ ID NO: 40) or mouse TfR ectodomain (SEQ ID NO: 41) (5 μg/ml) was captured for 1 min at 10 μL/min. Concentration series of the humanized Fab variants were then injected for 4 min at 30 μL/min over hTfR surfaces and dissociation was monitored for 5 min. Surface was regenerated with one 1 min pulse of 10 mM glycine-HCl at pH 1.5.

For assay [6], the target named is T1, His-tagged human TfR ectodomain …. Description: SPR, His-tagged TfR ectodomain captured on anti-His, 1:1 fit. The protocol:
as §2
The source holds these as a separate data set.

In assay [7] the target is T2, His-tagged cynomolgus monkey TfR …. The description is as above. The protocol: as §2

Where two headings read alike, the source gives them in different places.

As usually defined, the Kd is the concentration at which binding is half-saturated.

Chain of His-tagged mouse TfR ectodomain (mTFRC_89_764; mature protein) (Q62351 other isoform, or with tags, fused parts or gaps): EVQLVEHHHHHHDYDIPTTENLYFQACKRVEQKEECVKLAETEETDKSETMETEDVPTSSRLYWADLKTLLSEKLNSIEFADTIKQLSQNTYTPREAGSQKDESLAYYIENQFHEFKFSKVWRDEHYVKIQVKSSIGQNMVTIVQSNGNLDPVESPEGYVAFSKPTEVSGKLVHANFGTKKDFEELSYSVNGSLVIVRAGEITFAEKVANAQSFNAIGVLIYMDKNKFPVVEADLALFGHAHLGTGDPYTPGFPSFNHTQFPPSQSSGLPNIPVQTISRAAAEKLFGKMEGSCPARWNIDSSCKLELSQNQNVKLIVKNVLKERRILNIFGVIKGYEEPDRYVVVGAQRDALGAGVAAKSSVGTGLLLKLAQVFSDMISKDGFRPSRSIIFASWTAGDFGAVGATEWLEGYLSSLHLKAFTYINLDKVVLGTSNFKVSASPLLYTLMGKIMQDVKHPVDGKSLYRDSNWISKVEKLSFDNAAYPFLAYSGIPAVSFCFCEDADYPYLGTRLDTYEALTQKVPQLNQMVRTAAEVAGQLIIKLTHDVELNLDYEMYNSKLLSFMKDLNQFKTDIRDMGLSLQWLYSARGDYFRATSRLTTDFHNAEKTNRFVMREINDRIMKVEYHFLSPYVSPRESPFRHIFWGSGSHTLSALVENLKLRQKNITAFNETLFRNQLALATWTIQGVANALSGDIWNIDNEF

B1: 531-1L2_mouse mAb (antibody, IgG1, V domains shown)
VH: QVQLQQPGAELVSPGASVKLSCKASDYTFTRYWLNWVKQRPGQGLEWIGMIDPSVSECHYSQMFKDKATLTVDKSSSTAYMLLNSLTSEDSAVYYCSQIRLPYYYAMDSWGQGTSVTVSS
VL: DIQMTQTPSSLSASLGDRVTISCRASQDINSFLNWYQQKPDGTVKLLIYYTSRLHSGVPSRFSGSGSGTDYSLTIGNLDQEDIATYFCQQGNTLPRTFGGGTKLELK
notes: constant regions are not
Regarding B1, the dissociation constant (Kd) in assay [1] is 6.9 nM; in assay [2] it was 27 nM; in assay [6] it was 6.93 nM; in assay [7], 27 nM. Further, the “Cynomolgus/human KD ratio” value in assay [3] and in assay [5] was 3.9 each time. In addition, the binding result in assay [4] is recorded as “no binding”.
